Measurements published in the supplement of paper PMC7877785.
± gives the uncertainty stated by the source.

Experiment: self-splicing fitness, log relative to wild type (ln ratio); higher = more splicing; Tetrahymena group I intron in knt gene, E. coli kanamycin selection, DiMSum; sequences stand for … in CUCUCU…GGAGGGAAAAGUUAUCAGGCAUGCACCUGGUAGCUAGUCUUUAAACCAAUAGAUUGCAUCGGUUUAAAAGGCAAGACCGUCAAAUUGCGGGAAAGGGGUCAACAGCCGUUCAGUACCAAGUCUCAGGGGAAACUUUGAGAUGGCCUUGCAAAGGGUAUGGUAAUAAGCUGACGGACAUGGUCCUAACCACGCAGCCAAGUCCUAAGUCAACAGAUCUUCUGUUGAUAUGGAUGCAGUUCACAGACUAAAUGUCGGUCGGGGAAGAUGUAUUCUUCUCAUAAGAUAUAGUCGGACCUCUCCUUAAUGGGAGCUAGCGGAUGAAGUGAUGCAACACUGGAGCCGCUGGGAACUAAUUUGUAUGCGAAAGUAUAUUGAUUAGUUUUGGAGUACUCGUGGUCG
How it was run: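 DiMSum derived fitness as the error-weighted combination of fold changes across replicates, kanamycin versus no kanamycin, normalised to wild type. E. coli BL21(DE3) held the library, which randomised all eight P1ex-region intron nucleotides within the knt kanamycin-resistance gene on pET-22b(+). Six replicate transformations grew overnight at 37°C or 30°C on LB agar with or without 25 μg/mL kanamycin, also containing 100 μg/mL carbenicillin, 50 μM IPTG and 0.2% rhamnose, and pooled colonies were amplicon-sequenced on an Illumina HiSeq 2500.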

| Sequence | self-splicing fitness (ln) (30 °C) | self-splicing fitness (ln) (37 °C) |
| --- | --- | --- |
| UGUAAGCAAUAUUACGGCUA | 0.0076 ± 0.11 | 0.536 ± 0.13 |
| UGUAAGCAAUAUUACGGGCG | 0.00753 ± 0.092 | 0.237 ± 0.11 |
| UGUAAGCAAUAUUACGGGCU | -1.73 ± 0.17 | -0.63 ± 0.16 |
| UGUAAGCAAUAUUACGUAAG | -1.86 ± 0.15 | -1.84 ± 0.11 |
| UGUAAGCAAUAUUACGUCCG | -0.161 ± 0.12 | 0.473 ± 0.12 |
| UGUAAGCAAUAUUACGUGUC | -3.77 ± 0.2 | -2.01 ± 0.17 |
| UGUAAGCAAUAUUACGUGUG | -1.04 ± 0.085 | -0.237 ± 0.095 |
| UGUAAGCAAUAUUACGUGUU | -3.3 ± 0.15 | -0.96 ± 0.12 |
| UGUAAGCAAUAUUACGUUUC | -3.11 ± 0.22 | -3.02 ± 0.43 |
| UGUAAGCAAUAUUACGUUUU | -4.1 ± 0.18 | -1.14 ± 0.096 |
| UGUCAGCAAUAUUACGAAUG | 0.0484 ± 0.12 | 0.565 ± 0.12 |
| UGUCAGCAAUAUUACGACCA | -0.0909 ± 0.084 | 0.138 ± 0.12 |
| UGUCAGCAAUAUUACGACGA | -0.0655 ± 0.12 | -1.08 ± 0.12 |
| UGUCAGCAAUAUUACGAGCA | -0.272 ± 0.12 | -0.347 ± 0.13 |
| UGUCAGCAAUAUUACGAUGC | -2.28 ± 0.42 |  |
| UGUCAGCAAUAUUACGCACU | -1.07 ± 0.087 | -0.0217 ± 0.12 |
| UGUCAGCAAUAUUACGCCGU | -1.42 ± 0.13 | -1.12 ± 0.15 |
| UGUCAGCAAUAUUACGGAAC | -3.82 ± 0.2 | -2.23 ± 0.3 |
| UGUCAGCAAUAUUACGGCAC | -2.42 ± 0.35 |  |
| UGUCAGCAAUAUUACGGGCA | -2.75 ± 0.21 | -1.78 ± 0.27 |
| UGUCAGCAAUAUUACGGGCG | -1.71 ± 0.093 | -1.26 ± 0.12 |
| UGUCAGCAAUAUUACGGGUU | -2.31 ± 0.1 | -1.07 ± 0.11 |
| UGUCAGCAAUAUUACGGUCG | -0.443 ± 0.068 | 0.559 ± 0.11 |
| UGUCAGCAAUAUUACGGUUU | -1.01 ± 0.061 | -0.547 ± 0.086 |

| Sequence | self-splicing fitness (ln) (30 °C) | self-splicing fitness (ln) (37 °C) |
| --- | --- | --- |
| UGUCAGCAAUAUUACGUAUG | -0.239 ± 0.063 | 0.657 ± 0.086 |
| UGUCAGCAAUAUUACGUAUU | -1.77 ± 0.071 | -0.932 ± 0.081 |
| UGUCAGCAAUAUUACGUCAG | -0.398 ± 0.09 | -0.464 ± 0.098 |
| UGUCAGCAAUAUUACGUCUC | -2.3 ± 0.15 | -1.86 ± 0.22 |
| UGUCAGCAAUAUUACGUGCA | -0.626 ± 0.09 | -0.232 ± 0.1 |
| UGUCAGCAAUAUUACGUUCG | 0.194 ± 0.073 | 0.709 ± 0.1 |
| UGUGAGCAAUAUUACGAAGG | -3.98 ± 0.33 | -2.19 ± 0.3 |
| UGUGAGCAAUAUUACGACAA | -1.97 ± 0.14 | -1.68 ± 0.14 |
| UGUGAGCAAUAUUACGACGC | -2.98 ± 0.33 | -2.67 ± 0.38 |
| UGUGAGCAAUAUUACGACUG | -1.04 ± 0.18 | -0.343 ± 0.29 |
| UGUGAGCAAUAUUACGAUGG | -2.74 ± 0.2 | -2.27 ± 0.19 |
| UGUGAGCAAUAUUACGCCAA | -1.67 ± 0.5 | -0.355 ± 0.39 |
| UGUGAGCAAUAUUACGCCGG | -3.85 ± 0.25 | -1.98 ± 0.33 |
| UGUGAGCAAUAUUACGCCUU | -2.28 ± 0.4 |  |
| UGUGAGCAAUAUUACGCUAG | -3.43 ± 0.32 | -1.59 ± 0.2 |
| UGUGAGCAAUAUUACGCUGA | -2.24 ± 0.46 |  |
| UGUGAGCAAUAUUACGGAAA | -2.62 ± 0.38 | -2.61 ± 0.31 |
| UGUGAGCAAUAUUACGGAGG | -3.33 ± 0.29 | -2.11 ± 0.34 |
| UGUGAGCAAUAUUACGGAUA | -1.65 ± 0.35 | -1.64 ± 0.34 |
| UGUGAGCAAUAUUACGGAUG | -3.1 ± 0.17 | -1.52 ± 0.23 |
| UGUGAGCAAUAUUACGGCAA | -1.83 ± 0.23 | -1.27 ± 0.25 |
| UGUGAGCAAUAUUACGGCGA | -1.37 ± 0.14 | -1.05 ± 0.15 |
| UGUGAGCAAUAUUACGGUGG | -2.64 ± 0.19 | -3.01 ± 0.35 |
| UGUGAGCAAUAUUACGUAAA | -2.31 ± 0.15 | -1.31 ± 0.21 |

| Sequence | self-splicing fitness (ln) (30 °C) | self-splicing fitness (ln) (37 °C) |
| --- | --- | --- |
| UGUGAGCAAUAUUACGUAAG | -1.7 ± 0.15 | -0.85 ± 0.21 |
| UGUGAGCAAUAUUACGUAUC | -3.75 ± 0.37 | -2.3 ± 0.32 |
| UGUGAGCAAUAUUACGUCUA | -1.51 ± 0.16 | -1.36 ± 0.15 |
| UGUGAGCAAUAUUACGUGAG | -1.67 ± 0.14 | -1.52 ± 0.18 |
| UGUUAGCAAUAUUACGAACC | -0.427 ± 0.21 | 0.133 ± 0.25 |
| UGUUAGCAAUAUUACGAGCG | 0.176 ± 0.095 | -0.175 ± 0.12 |
| UGUUAGCAAUAUUACGCAAU | -4.18 ± 0.42 | -2.67 ± 0.27 |
| UGUUAGCAAUAUUACGCAUA | -1.72 ± 0.21 | -0.397 ± 0.16 |
| UGUUAGCAAUAUUACGCGCG | -1.36 ± 0.19 | -0.771 ± 0.21 |
| UGUUAGCAAUAUUACGGACA | -1.59 ± 0.23 | -0.73 ± 0.2 |
| UGUUAGCAAUAUUACGGCAC | -1.58 ± 0.47 | -1.51 ± 0.43 |
| UGUUAGCAAUAUUACGGGUG | -0.781 ± 0.071 | -0.441 ± 0.086 |
| UGUUAGCAAUAUUACGGUAG | -0.65 ± 0.22 | -0.35 ± 0.19 |
| UGUUAGCAAUAUUACGGUCA | 0.281 ± 0.096 | 0.169 ± 0.11 |
| UGUUAGCAAUAUUACGGUGC | -3.76 ± 0.43 | -2.88 ± 0.32 |
| UGUUAGCAAUAUUACGUAAA | -0.887 ± 0.14 | 0.19 ± 0.21 |
| UGUUAGCAAUAUUACGUACU | 0.199 ± 0.2 | 0.344 ± 0.18 |
| UGUUAGCAAUAUUACGUAUU |  | -2.12 ± 0.3 |
| UGUUAGCAAUAUUACGUCUC | -4.05 ± 0.42 | -2.07 ± 0.31 |
| UGUUAGCAAUAUUACGUGGU | -4.24 ± 0.19 | -2.76 ± 0.14 |
| UGUUAGCAAUAUUACGUGUG | -0.767 ± 0.12 | -0.724 ± 0.13 |
| UGUUAGCAAUAUUACGUUAG | -0.971 ± 0.12 | -1.26 ± 0.12 |
| UGUUAGCAAUAUUACGUUGA | -1.59 ± 0.21 | -0.731 ± 0.19 |
| UGUUAGCAAUAUUACGUUUU | -3.9 ± 0.33 | -2.19 ± 0.24 |

| Sequence | self-splicing fitness (ln) (30 °C) | self-splicing fitness (ln) (37 °C) |
| --- | --- | --- |
| UUAAAGCAAUAUUACGACAU | -0.271 ± 0.012 | 0.189 ± 0.032 |
| UUAAAGCAAUAUUACGACCA | -0.0875 ± 0.22 | 0.312 ± 0.25 |
| UUAAAGCAAUAUUACGACCC | -0.686 ± 0.28 | -0.355 ± 0.29 |
| UUAAAGCAAUAUUACGAGCU | -0.888 ± 0.073 | -0.532 ± 0.1 |
| UUAAAGCAAUAUUACGAUUA | 0.6 ± 0.089 | 0.448 ± 0.097 |
| UUAAAGCAAUAUUACGAUUG | -2.03 ± 0.11 | -0.734 ± 0.11 |
| UUAAAGCAAUAUUACGCACU | -0.0158 ± 0.068 | 0.681 ± 0.095 |
| UUAAAGCAAUAUUACGCCUC | -2.29 ± 0.19 | -1.43 ± 0.24 |
| UUAAAGCAAUAUUACGGAAA | -0.926 ± 0.092 | -1.29 ± 0.12 |
| UUAAAGCAAUAUUACGGACC | -2.27 ± 0.18 | 0.778 ± 0.16 |
| UUAAAGCAAUAUUACGGAGU | -3.35 ± 0.21 | -1.68 ± 0.19 |
| UUAAAGCAAUAUUACGGCGA | 0.464 ± 0.17 | 0.659 ± 0.21 |
| UUAAAGCAAUAUUACGGCUG | 0.262 ± 0.083 | 0.525 ± 0.12 |
| UUAAAGCAAUAUUACGGGGG | -1.83 ± 0.13 | -2.16 ± 0.2 |
| UUAAAGCAAUAUUACGUAUA | -1.26 ± 0.12 | -0.271 ± 0.14 |
| UUAAAGCAAUAUUACGUCAG | -0.815 ± 0.065 | 0.0256 ± 0.093 |
| UUAAAGCAAUAUUACGUCCC | -1.51 ± 0.11 | -0.906 ± 0.14 |
| UUAAAGCAAUAUUACGUGUC | -1.09 ± 0.14 | -1.42 ± 0.16 |
| UUAAAGCAAUAUUACGUUAC | -3.66 ± 0.19 | -0.9 ± 0.2 |
| UUACAGCAAUAUUACGAACU | -2.26 ± 0.15 | -0.279 ± 0.13 |
| UUACAGCAAUAUUACGAAUC | -3.27 ± 0.27 | -2.13 ± 0.3 |
| UUACAGCAAUAUUACGACGA | -0.196 ± 0.077 | 0.136 ± 0.12 |
| UUACAGCAAUAUUACGAGCA | -1.65 ± 0.14 | -0.698 ± 0.11 |
| UUACAGCAAUAUUACGAGGA | -2.24 ± 0.19 | -0.838 ± 0.15 |
